# From the RNAGym collection of RNA variant scans (doi:10.7554/elife.80360)
# B1: Hairpin Ribozyme (parent)
# chain: GUCCUCUUUCACGUGCGCGUGAAAGAGAGAAGUGAACCAGAGAAACACACGUUGUGGUAUAUUACCUGGUA
# Variants of: B1
# Test: self-cleavage, relative activity (ratio to wild type); higher = more cleavage; co-transcriptional
row,Variant,self-cleavage
1,G34A G68C,0.283
2,C3U A61C,0.164
3,G54U,0.626
4,A35G A44U,0.14
5,A22C C46G,0.187
6,A31C C66G,0.102
7,U62G A71U,0.367
8,G13U A23G,0.675
9,G17U U58G,0.644
10,C4G U14C,0.125
11,U63A C66G,0.0954
12,A23U C48G,0.226
13,G42A C48U,0.0486
14,G13A C46G,0.0618
15,C12G A64C,0.334
16,C50U U67A,0.2
17,U7C U8A,0.615
18,A24G A47G,0.191
19,G54A A61U,0.254
20,U2G A28G,0.138
21,A39G A71U,0.176
22,G54A G69C,0.177
23,G29U G42U,0.107
24,G27U A64G,0.205

row,Variant,self-cleavage
1,U20A A26C,0.394
2,C6A U60G,0.4
3,C18U A61G,0.276
4,A30U C38G,0.108
5,U20A A35C,0.967
6,C48G U62C,0.139
7,C10G A45G,0.118
8,C10G A45U,0.136
9,G15A A61G,0.18
10,G25A G57C,0.0684
11,A45C A47C,0.198
12,G27C G29U,0.179
13,C10A G13A,0.501
14,U14C C66A,0.223
15,C38G A49C,0.106
16,G17A A28U,0.808
17,A64C G69C,0.129
18,G56U U60G,0.231
19,C18A G57C,0.187
20,U7A C48A,0.165
21,U9C A11G,0.692
22,A11U C37A,0.228
23,A47U G69C,0.227
24,U2A A22C,0.341

row,Variant,self-cleavage
1,C46G U70G,0.149
2,U5C U20C,0.673
3,A11G A44U,0.137
4,C10U U53C,0.708
5,A26C A64C,0.216
6,C65U A71U,0.441
7,C18U G51A,1.26
8,A41U A47U,0.207
9,A41U A47G,0.207
10,C12G U70C,0.699
11,A26C G42A,0.12
12,U33A G40U,0.126
13,U53G A61G,0.313
14,G40U U70G,0.0618
15,U8C G29A,0.112
16,U9C G19U,0.617
17,A49C U53A,0.0758
18,U58G G68U,0.19
19,G17U A31C,0.224
20,G15U U53G,0.645
21,A26G C38G,0.138
22,A26C U52G,0.409
23,A24G U53C,0.881
24,A45G G56A,0.183

row,Variant,self-cleavage
1,U7C A47G,0.0534
2,U8G G21A,0.693
3,C6U G17C,0.434
4,C10U G25U,0.509
5,G51A U70C,1.1
6,G32A A41G,0.183
7,A43G U70C,0.19
8,U9C U62C,0.143
9,C12G U67A,0.202
10,G25A U67C,0.166
11,G13C C66G,0.129
12,A23G C65U,0.349
13,A11C U62A,0.208
14,G57U U70A,0.266
15,U14C A47G,0.118
16,U8C A59C,0.183
17,C16G G17U,1.08
18,C3A U70A,0.377
19,A30G A39G,0.127
20,C37A U52C,0.266
21,G42U A61C,0.193
22,A22G U63C,0.245
23,A30U A41U,0.232
24,C16G G68U,0.132

row,Variant,self-cleavage
1,U8A U60G,0.439
2,U33G C38G,0.128
3,C12G C38A,0.148
4,U8G C46A,0.134
5,A36C A49C,0.144
6,G40U G69C,0.14
7,A41G G56U,0.195
8,G21A C66G,0.156
9,G68C A71G,0.233
10,U5C U55C,0.2
11,A23G U58A,0.662
12,A28U A47U,0.125
13,C3U A41G,0.643
14,A22C G34A,1.04
15,G19C C38U,0.489
16,A24U G40U,0.187
17,C12G G69C,0.355
18,C6U C16G,0.65
19,U20G A23G,0.98
20,A30G C38A,0.0519
21,C10U G29A,0.158
22,A23U G56U,0.184
23,U53G A71C,1.29
24,U14A G51U,0.925

row,Variant,self-cleavage
1,C10G A24U,0.468
2,U20C G32U,0.157
3,G51A G54A,0.62
4,G13A C18G,0.761
5,U58A U70G,0.493
6,U2G A36U,0.318
7,A28G U67G,0.294
8,C4G A47U,0.0972
9,U7A G15C,1.06
10,A30G U55C,0.0826
11,G40U U63G,0.104
12,C6U C38A,0.0889
13,A30G C48G,0.0877
14,A11C U70G,0.608
15,C50U C66G,0.166
16,G13U A71G,0.936
17,U70C,0.924
18,G21C U52C,0.971
19,G54A C65A,0.497
20,G27A A64G,0.303
21,C46U U55C,0.0817
22,G27C A47C,0.0432
23,A41G U67C,0.483
24,A41G U63G,0.248

row,Variant,self-cleavage
1,A30U G57A,0.0986
2,C38G G54C,0.12
3,U5G U58C,0.25
4,A24G G40U,0.147
5,G51A U63G,0.135
6,C10U G42A,0.195
7,C38U U60C,0.759
8,U5C C38G,0.115
9,U9A G57A,0.141
10,A39U U63C,0.144
11,A35C C37U,0.486
12,C6A C66G,0.109
13,A28G A30U,0.0576
14,U2G C50A,0.15
15,C10A A28G,1.09
16,U2G C10A,0.258
17,U20G U55G,0.293
18,A24G G57A,0.228
19,G19U G27A,0.489
20,A23U U52G,0.753
21,C12A A28C,0.531
22,U55C U58G,0.175
23,U55C U58C,0.475
